Measurements reported in patent EP4682166A1 (Guangzhou Enmai Biotechnology Co., Ltd, dated 2026).

T1: human NMI (N-myc Interacting protein), recombinant protein (human, UniProt Q13287 1-307, limits assumed)
T1 construct: Gene ID: 9111; also called hNMI; antigen
T1 sequence (looked up): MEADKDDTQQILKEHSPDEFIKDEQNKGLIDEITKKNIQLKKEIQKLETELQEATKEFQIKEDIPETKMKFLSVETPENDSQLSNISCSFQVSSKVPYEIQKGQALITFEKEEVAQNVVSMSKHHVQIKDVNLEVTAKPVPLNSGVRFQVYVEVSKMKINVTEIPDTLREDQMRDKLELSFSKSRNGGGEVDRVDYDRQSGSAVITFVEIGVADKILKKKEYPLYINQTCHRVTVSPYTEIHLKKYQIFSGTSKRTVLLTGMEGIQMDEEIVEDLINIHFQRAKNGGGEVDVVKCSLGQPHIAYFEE


Columns and labels:
[1] = molecular target: T1, human NMI (N-myc Interacting protein), …; experiment: ELISA EC50 against parent 94C4
[2] = molecular target: T1, human NMI (N-myc Interacting protein), …; experiment: ELISA EC50 against parent 98G10
[3] = molecular target: T1, human NMI (N-myc Interacting protein), …; experiment: ELISA, binding to hNMI
[4] = molecular target: T1, human NMI (N-myc Interacting protein), …; experiment: ELISA EC50 against parent 98G10; remark: listed apart in the source

Row | Fold decrease in affinity [1] [fold] | Fold decrease in affinity [2] [fold] | EC50 [3] [nM] | Fold decrease in affinity [4] [fold] | Binder
1 | > 500 |  |  |  | 94C4 mutant A32K (VH) (antibody, V domains shown) VH: QSLEESGGGLVQPEGSLTLTCKASGFDFSSNKMCWVRQAPGKGLEWIACISSASSGSSGSTYYASWAKGRFTISKTSSTTVTLQMTSLTAADMATYFCARDGYDLWGPGTLVTVSS VL: QVLTQTPSSVSAAVGGTVTISCQSSPSVYNNYLSWFQQKPGQSPKLLIYRVSTLASGVPSRFSGSGSGTQFTLTISGVQCDDAATYYCAGGYDSASDTYVFGGGTEVVVK
2 | > 500 |  |  |  | 94C4 mutant D101E (VH) (antibody, V domains shown) VH: QSLEESGGGLVQPEGSLTLTCKASGFDFSSNAMCWVRQAPGKGLEWIACISSASSGSSGSTYYASWAKGRFTISKTSSTTVTLQMTSLTAADMATYFCAREGYDLWGPGTLVTVSS VL: QVLTQTPSSVSAAVGGTVTISCQSSPSVYNNYLSWFQQKPGQSPKLLIYRVSTLASGVPSRFSGSGSGTQFTLTISGVQCDDAATYYCAGGYDSASDTYVFGGGTEVVVK
3 | > 500 |  |  |  | 94C4 mutant S29D (VH) (antibody, V domains shown) VH: QSLEESGGGLVQPEGSLTLTCKASGFDFDSNAMCWVRQAPGKGLEWIACISSASSGSSGSTYYASWAKGRFTISKTSSTTVTLQMTSLTAADMATYFCARDGYDLWGPGTLVTVSS VL: QVLTQTPSSVSAAVGGTVTISCQSSPSVYNNYLSWFQQKPGQSPKLLIYRVSTLASGVPSRFSGSGSGTQFTLTISGVQCDDAATYYCAGGYDSASDTYVFGGGTEVVVK
4 | > 500 |  |  |  | 94C4 mutant D101S (VH) (antibody, V domains shown) VH: QSLEESGGGLVQPEGSLTLTCKASGFDFSSNAMCWVRQAPGKGLEWIACISSASSGSSGSTYYASWAKGRFTISKTSSTTVTLQMTSLTAADMATYFCARSGYDLWGPGTLVTVSS VL: QVLTQTPSSVSAAVGGTVTISCQSSPSVYNNYLSWFQQKPGQSPKLLIYRVSTLASGVPSRFSGSGSGTQFTLTISGVQCDDAATYYCAGGYDSASDTYVFGGGTEVVVK
5 | > 500 |  |  |  | 94C4 mutant S52K (VH) (antibody, V domains shown) VH: QSLEESGGGLVQPEGSLTLTCKASGFDFSSNAMCWVRQAPGKGLEWIACISKASSGSSGSTYYASWAKGRFTISKTSSTTVTLQMTSLTAADMATYFCARDGYDLWGPGTLVTVSS VL: QVLTQTPSSVSAAVGGTVTISCQSSPSVYNNYLSWFQQKPGQSPKLLIYRVSTLASGVPSRFSGSGSGTQFTLTISGVQCDDAATYYCAGGYDSASDTYVFGGGTEVVVK
6 | > 500 |  |  |  | 94C4 mutant D101K (VH) (antibody, V domains shown) VH: QSLEESGGGLVQPEGSLTLTCKASGFDFSSNAMCWVRQAPGKGLEWIACISSASSGSSGSTYYASWAKGRFTISKTSSTTVTLQMTSLTAADMATYFCARKGYDLWGPGTLVTVSS VL: QVLTQTPSSVSAAVGGTVTISCQSSPSVYNNYLSWFQQKPGQSPKLLIYRVSTLASGVPSRFSGSGSGTQFTLTISGVQCDDAATYYCAGGYDSASDTYVFGGGTEVVVK
7 | > 500 |  |  |  | 94C4 mutant D101Q (VH) (antibody, V domains shown) VH: QSLEESGGGLVQPEGSLTLTCKASGFDFSSNAMCWVRQAPGKGLEWIACISSASSGSSGSTYYASWAKGRFTISKTSSTTVTLQMTSLTAADMATYFCARQGYDLWGPGTLVTVSS VL: QVLTQTPSSVSAAVGGTVTISCQSSPSVYNNYLSWFQQKPGQSPKLLIYRVSTLASGVPSRFSGSGSGTQFTLTISGVQCDDAATYYCAGGYDSASDTYVFGGGTEVVVK
8 | > 500 |  |  |  | 94C4 mutant D97K (VL) (antibody, V domains shown) VH: QSLEESGGGLVQPEGSLTLTCKASGFDFSSNAMCWVRQAPGKGLEWIACISSASSGSSGSTYYASWAKGRFTISKTSSTTVTLQMTSLTAADMATYFCARDGYDLWGPGTLVTVSS VL: QVLTQTPSSVSAAVGGTVTISCQSSPSVYNNYLSWFQQKPGQSPKLLIYRVSTLASGVPSRFSGSGSGTQFTLTISGVQCDDAATYYCAGGYDSASKTYVFGGGTEVVVK
9 | > 500 |  |  |  | 94C4 mutant D101M (VH) (antibody, V domains shown) VH: QSLEESGGGLVQPEGSLTLTCKASGFDFSSNAMCWVRQAPGKGLEWIACISSASSGSSGSTYYASWAKGRFTISKTSSTTVTLQMTSLTAADMATYFCARMGYDLWGPGTLVTVSS VL: QVLTQTPSSVSAAVGGTVTISCQSSPSVYNNYLSWFQQKPGQSPKLLIYRVSTLASGVPSRFSGSGSGTQFTLTISGVQCDDAATYYCAGGYDSASDTYVFGGGTEVVVK
10 |  | > 100 |  |  | 98G10 mutant G55H (VH) (antibody, V domains shown) VH: QEQLEESGGDLVKPEGSLTLTCTASGFSFSASYWICWVRQAPGKGLEWIACIYGHSSGSAYYASWAKGRFTISKTSSTTVTLQMTSLTAADTATYFCARAGYYNYGSAGDIYPSSFKLWGPGTLVTVSS VL: DIVMTQTPASVEAAVGGTVTINCQASQSISTALAWYQQKPGQPPKLLIYTASKVASGVPSRFSGSGSGTQFTLTISDLECADAATYYCQNYYYSSSSITFGGGTEVVVK
11 |  |  | 0.168 | 1.02 | 98G10-6 (antibody, V domains shown, also called 98G10 T81Y (VH), T18R/C80P (VL)) VH: QEQLEESGGDLVKPEGSLTLTCTASGFSFSASYWICWVRQAPGKGLEWIACIYGGSSGSAYYASWAKGRFTISKTSSTTVYLQMTSLTAADTATYFCARAGYYNYGSAGDIYPSSFKLWGPGTLVTVSS VL: DIVMTQTPASVEAAVGGRVTINCQASQSISTALAWYQQKPGQPPKLLIYTASKVASGVPSRFSGSGSGTQFTLTISDLEPADAATYYCQNYYYSSSSITFGGGTEVVVK
12 |  |  | 0.177 | 1.07 | 98G10-4 (antibody, V domains shown, also called 98G10 T23K (VH), C80P (VL)) VH: QEQLEESGGDLVKPEGSLTLTCKASGFSFSASYWICWVRQAPGKGLEWIACIYGGSSGSAYYASWAKGRFTISKTSSTTVTLQMTSLTAADTATYFCARAGYYNYGSAGDIYPSSFKLWGPGTLVTVSS VL: DIVMTQTPASVEAAVGGTVTINCQASQSISTALAWYQQKPGQPPKLLIYTASKVASGVPSRFSGSGSGTQFTLTISDLEPADAATYYCQNYYYSSSSITFGGGTEVVVK
13 |  |  | 0.106 | 0.64 | 98G10-8 (antibody, V domains shown, also called 98G10 T23K/T75D/T81Y (VH), T18R/C80P (VL)) VH: QEQLEESGGDLVKPEGSLTLTCKASGFSFSASYWICWVRQAPGKGLEWIACIYGGSSGSAYYASWAKGRFTISKDSSTTVYLQMTSLTAADTATYFCARAGYYNYGSAGDIYPSSFKLWGPGTLVTVSS VL: DIVMTQTPASVEAAVGGRVTINCQASQSISTALAWYQQKPGQPPKLLIYTASKVASGVPSRFSGSGSGTQFTLTISDLEPADAATYYCQNYYYSSSSITFGGGTEVVVK
14 |  |  | 0.0746 | 0.45 | 98G10-12 (antibody, V domains shown, also called 98G10 T75D (VH)) VH: QEQLEESGGDLVKPEGSLTLTCTASGFSFSASYWICWVRQAPGKGLEWIACIYGGSSGSAYYASWAKGRFTISKDSSTTVTLQMTSLTAADTATYFCARAGYYNYGSAGDIYPSSFKLWGPGTLVTVSS VL: DIVMTQTPASVEAAVGGTVTINCQASQSISTALAWYQQKPGQPPKLLIYTASKVASGVPSRFSGSGSGTQFTLTISDLECADAATYYCQNYYYSSSSITFGGGTEVVVK
15 |  |  | 0.238 | 1.44 | 98G10-5 (antibody, V domains shown, also called 98G10 T18R/C80P (VL)) VH: QEQLEESGGDLVKPEGSLTLTCTASGFSFSASYWICWVRQAPGKGLEWIACIYGGSSGSAYYASWAKGRFTISKTSSTTVTLQMTSLTAADTATYFCARAGYYNYGSAGDIYPSSFKLWGPGTLVTVSS VL: DIVMTQTPASVEAAVGGRVTINCQASQSISTALAWYQQKPGQPPKLLIYTASKVASGVPSRFSGSGSGTQFTLTISDLEPADAATYYCQNYYYSSSSITFGGGTEVVVK
16 |  |  | 0.0659 | 0.4 | 98G10-11 (antibody, V domains shown, also called 98G10 Q70D (VL)) VH: QEQLEESGGDLVKPEGSLTLTCTASGFSFSASYWICWVRQAPGKGLEWIACIYGGSSGSAYYASWAKGRFTISKTSSTTVTLQMTSLTAADTATYFCARAGYYNYGSAGDIYPSSFKLWGPGTLVTVSS VL: DIVMTQTPASVEAAVGGTVTINCQASQSISTALAWYQQKPGQPPKLLIYTASKVASGVPSRFSGSGSGTDFTLTISDLECADAATYYCQNYYYSSSSITFGGGTEVVVK
17 |  |  | 0.133 | 0.81 | 98G10-7 (antibody, V domains shown, also called 98G10 T23K/T81Y (VH), T18R/C80P (VL)) VH: QEQLEESGGDLVKPEGSLTLTCKASGFSFSASYWICWVRQAPGKGLEWIACIYGGSSGSAYYASWAKGRFTISKTSSTTVYLQMTSLTAADTATYFCARAGYYNYGSAGDIYPSSFKLWGPGTLVTVSS VL: DIVMTQTPASVEAAVGGRVTINCQASQSISTALAWYQQKPGQPPKLLIYTASKVASGVPSRFSGSGSGTQFTLTISDLEPADAATYYCQNYYYSSSSITFGGGTEVVVK
18 |  |  | 0.168 | 1.02 | 98G10-10 (antibody, V domains shown, also called 98G10 T23K/T75D/T81Y (VH), T18R/Q70D/C80P (VL)) VH: QEQLEESGGDLVKPEGSLTLTCKASGFSFSASYWICWVRQAPGKGLEWIACIYGGSSGSAYYASWAKGRFTISKDSSTTVYLQMTSLTAADTATYFCARAGYYNYGSAGDIYPSSFKLWGPGTLVTVSS VL: DIVMTQTPASVEAAVGGRVTINCQASQSISTALAWYQQKPGQPPKLLIYTASKVASGVPSRFSGSGSGTDFTLTISDLEPADAATYYCQNYYYSSSSITFGGGTEVVVK
19 |  |  | 0.119 | 0.72 | 98G10-9 (antibody, V domains shown, also called 98G10 T23K/T81Y (VH), T18R/Q70D/C80P (VL)) VH: QEQLEESGGDLVKPEGSLTLTCKASGFSFSASYWICWVRQAPGKGLEWIACIYGGSSGSAYYASWAKGRFTISKTSSTTVYLQMTSLTAADTATYFCARAGYYNYGSAGDIYPSSFKLWGPGTLVTVSS VL: DIVMTQTPASVEAAVGGRVTINCQASQSISTALAWYQQKPGQPPKLLIYTASKVASGVPSRFSGSGSGTDFTLTISDLEPADAATYYCQNYYYSSSSITFGGGTEVVVK
